# Results reported in publication PMC6025699, “Acetylation Regulates Thioredoxin Reductase Oligomerization and Activity” (Antioxidants & Redox Signaling, 2018).
# Several values for one entry are separate records, joined by “and”; a condition that tells them apart may be missing. Identical values can stand only once.
# B1: acetylated thioredoxin reductase 1, Nɛ-acetyl-lysine at K141 (acTrxR1^K141) (enzyme, human, UniProt Q16881-4 1-551, looked up)
# chain: MSCEDGRALEGTLSELAAETDLPVVFVKQRKIGGHGPTLKAYQEGRLQKLLKMNGPEDLPKSYDYDLIIIGGGSGGLAAAKEAAQYGKKVMVLDFVTPTPLGTRWGLGGTCVNVGCIPKKLMHQAALLGQALQDSRNYGWKVEETVKHDWDRMIEAVQNHIGSLNWGYRVALREKKVVYENAYGQFIGPHRIKATNNKGKEKIYSAERFLIATGERPRYLGIPGDKEYCISSDDLFSLPYCPGKTLVVGASYVALECAGFLAGIGLDVTVMVRSILLRGFDQDMANKIGEHMEEHGIKFIRQFVPIKVEQIEAGTPGRLRVVAQSTNSEEIIEGEYNTVMLAIGRDACTRKIGLETVGVKINEKTGKIPVTDEEQTNVPYIYAIGDILEDKVELTPVAIQAGRLLAQRLYAGSTVKCDYENVPTTVFTPLEYGACGLSEEKAVEKFGEENIEVYHSYFWPLEWTIPSRDNNKCYAKIICNTKDNERVVGFHVLGPNAGEVTQGFAAALKCGLTKKQLDSTIGIHPVCAEVFTTLSVTKRSGASILQAGCUG
# modifications: Nɛ-acetyl-lysine at 141; selenocysteine (Sec) at 550
# notes: Same construct as m1 but for the acetyl-lysine at 141; source: E. coli BL21 DE3 or E. coli ΔRF1 (C321.ΔA.exp) with acKRS/tRNA^Pyl, purified (Ni-NTA, size-exclusion chromatography)
# B2: acetylated thioredoxin reductase 1, Nɛ-acetyl-lysine at K200 (acTrxR1^K200) (enzyme, human, UniProt Q16881-4 1-551, looked up)
# chain: B1 chain
# modifications: Nɛ-acetyl-lysine at 200; selenocysteine (Sec) at 550
# notes: Same construct as m1 but for the acetyl-lysine at 200; source: E. coli BL21 DE3 or E. coli ΔRF1 (C321.ΔA.exp) with acKRS/tRNA^Pyl, purified (Ni-NTA, size-exclusion chromatography)
# B3: acetylated thioredoxin reductase 1, Nɛ-acetyl-lysine at K307 (acTrxR1^K307) (enzyme, human, UniProt Q16881-4 1-551, looked up)
# chain: B1 chain
# modifications: Nɛ-acetyl-lysine at 307; selenocysteine (Sec) at 550
# notes: Same construct as m1 but for the acetyl-lysine at 307; source: E. coli BL21 DE3 or E. coli ΔRF1 (C321.ΔA.exp) with acKRS/tRNA^Pyl, purified (Ni-NTA, size-exclusion chromatography)
# B4: wild-type thioredoxin reductase 1 (human TrxR1, isoform 4, Sec550) (enzyme, UniProt Q16881-4 1-551, looked up)
# chain: B1 chain
# modifications: selenocysteine (Sec) at 550
# notes: amplified with a forward primer at the ATG (NdeI) and a reverse primer behind the fdhF SecIS in the 3' UTR; In solution a mixture of monomers, dimers, tetramers and covalently linked dimers; also called WT TrxR1; His6-TrxR1; source: E. coli BL21 DE3 or E. coli ΔRF1 (C321.ΔA.exp), purified (Ni-NTA, size-exclusion chromatography)
# Target: the molecule itself
# Experiment: cell-based or functional assay
Protein,"9,10-phenanthrequinone assay, relative activity (x-fold, WT TrxR1 = 1), 100 nM TrxR1 [x-fold]","DTNB assay, relative activity (x-fold, WT TrxR1 = 1), 50 nM TrxR1 [x-fold]","insulin linked Trx1 assay, relative activity (x-fold, WT TrxR1 = 1), 200 nM TrxR1 [x-fold]"
B1,1.2,1.8,1.8
B2,1.4,2.1,1.9
B3,1.3,2.7,2

# Target: the molecule itself
# Experiment: SEC; native size exclusion chromatography, Superdex 200 Increase 10/300 GL, 20 mM sodium phosphate, 150 mM sodium chloride, pH 7.5; 0.5 mL fractions read by anti-His Western blot (densitometry) and DTNB activity; self-association: monomers, dimers, tetramers
row,Protein,stoichiometry N
1,B1,2 and 4
2,B4,2 and 4
3,B2,2 and 4
4,B3,2 and 4
